{"source": "paper PMC3433420", "key": {"[1]": {"target": "PIK3R3-N (Homo sapiens) (UniProt Q92569)", "conditions": "cited from earlier work"}, "[2]": {"target": "PIK3R3-N (Homo sapiens) (UniProt Q92569)", "conditions": "cited from earlier work", "remark": "listed apart in the source"}, "[3]": {"target": "SHC1-PTB (Homo sapiens) (UniProt P29353)", "sequence (P29353 483-583)": "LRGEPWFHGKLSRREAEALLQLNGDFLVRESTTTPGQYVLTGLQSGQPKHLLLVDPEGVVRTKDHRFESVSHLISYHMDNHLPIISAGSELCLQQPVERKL", "conditions": "cited from earlier work"}, "[4]": {"target": "PIK3R2-N (Homo sapiens) (UniProt O00459)", "sequence (O00459 325-721)": "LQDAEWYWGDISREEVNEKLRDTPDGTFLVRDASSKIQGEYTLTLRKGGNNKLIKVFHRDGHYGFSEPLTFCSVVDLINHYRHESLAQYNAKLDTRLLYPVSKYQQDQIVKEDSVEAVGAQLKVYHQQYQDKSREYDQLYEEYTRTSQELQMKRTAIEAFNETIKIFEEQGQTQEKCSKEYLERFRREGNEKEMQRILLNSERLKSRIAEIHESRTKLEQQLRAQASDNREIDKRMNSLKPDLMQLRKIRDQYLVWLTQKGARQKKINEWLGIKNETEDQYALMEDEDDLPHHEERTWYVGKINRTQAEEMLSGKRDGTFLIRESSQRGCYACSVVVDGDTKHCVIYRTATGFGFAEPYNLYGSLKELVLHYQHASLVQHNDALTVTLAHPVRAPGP", "conditions": "cited from earlier work"}, "[5]": {"target": "PIK3R1-N (Homo sapiens) (UniProt P27986)", "sequence (P27986 328-723)": "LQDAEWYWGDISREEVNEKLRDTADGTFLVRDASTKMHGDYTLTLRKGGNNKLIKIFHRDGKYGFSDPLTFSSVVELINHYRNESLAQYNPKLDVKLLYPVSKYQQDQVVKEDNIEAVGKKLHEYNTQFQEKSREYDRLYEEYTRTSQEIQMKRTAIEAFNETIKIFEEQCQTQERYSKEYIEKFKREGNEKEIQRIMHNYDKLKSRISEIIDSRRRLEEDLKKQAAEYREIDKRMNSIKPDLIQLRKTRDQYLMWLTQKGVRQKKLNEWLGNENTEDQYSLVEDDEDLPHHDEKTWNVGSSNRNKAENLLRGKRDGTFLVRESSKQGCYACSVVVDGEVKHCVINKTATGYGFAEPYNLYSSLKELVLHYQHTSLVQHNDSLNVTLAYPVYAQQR", "conditions": "cited from earlier work"}, "[6]": {"target": "PIK3R1-NC (Homo sapiens) (UniProt P27986)", "sequence (P27986 328-723)": "as above", "conditions": "cited from earlier work"}, "[7]": {"target": "ABL2 (Homo sapiens) (UniProt P42684)", "sequence (P42684 168-268)": "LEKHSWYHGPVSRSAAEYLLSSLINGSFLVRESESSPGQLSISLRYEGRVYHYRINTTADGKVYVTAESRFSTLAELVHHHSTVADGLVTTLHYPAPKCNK", "conditions": "cited from earlier work"}, "[8]": {"target": "PIK3R1-C (Homo sapiens) (UniProt P27986)", "sequence (P27986 328-723)": "as the sequence (P27986 328-723) above", "conditions": "cited from earlier work"}, "[9]": {"target": "PIK3R1-NC (Homo sapiens) (UniProt P27986)", "conditions": "cited from earlier work", "remark": "listed apart in the source"}, "[10]": {"target": "SHB (Homo sapiens) (UniProt Q15464)", "sequence (Q15464 405-509)": "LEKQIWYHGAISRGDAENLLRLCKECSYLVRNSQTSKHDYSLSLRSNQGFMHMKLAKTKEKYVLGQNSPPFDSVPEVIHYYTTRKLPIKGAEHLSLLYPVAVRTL", "conditions": "cited from earlier work"}, "[11]": {"target": "ABL2 (Homo sapiens) (UniProt P42684)", "conditions": "cited from earlier work", "remark": "listed apart in the source"}, "[12]": {"target": "PIK3R3-NC (Homo sapiens) (UniProt Q92569)", "conditions": "cited from earlier work"}, "[13]": {"target": "PIK3R3-NC (Homo sapiens) (UniProt Q92569)", "conditions": "cited from earlier work", "remark": "listed apart in the source"}, "[14]": {"target": "PIK3R3-C (Homo sapiens) (UniProt Q92569)", "conditions": "cited from earlier work"}, "[15]": {"target": "ITK (Homo sapiens) (UniProt Q08881)", "sequence (Q08881 234-343)": "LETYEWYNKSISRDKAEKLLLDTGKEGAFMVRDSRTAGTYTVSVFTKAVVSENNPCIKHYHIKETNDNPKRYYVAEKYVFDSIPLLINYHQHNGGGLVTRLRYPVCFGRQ", "conditions": "cited from earlier work"}, "[16]": {"target": "SYK-C (Homo sapiens) (UniProt P43405)", "conditions": "cited from earlier work"}, "[17]": {"target": "SHF (Homo sapiens) (UniProt Q7M4L6)", "sequence (Q7M4L6 318-423)": "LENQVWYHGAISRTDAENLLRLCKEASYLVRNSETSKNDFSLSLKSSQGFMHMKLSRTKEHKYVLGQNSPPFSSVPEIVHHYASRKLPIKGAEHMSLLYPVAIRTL", "conditions": "cited from earlier work"}, "[18]": {"target": "PIK3R2-NC (Homo sapiens) (UniProt O00459)", "sequence (O00459 325-721)": "as the sequence (O00459 325-721) above", "conditions": "cited from earlier work"}, "[19]": {"target": "PIK3R2-N (Homo sapiens) (UniProt O00459)", "conditions": "cited from earlier work", "remark": "listed apart in the source"}, "[20]": {"target": "PIK3R2-N (Homo sapiens) (UniProt O00459)", "conditions": "cited from earlier work", "remark": "listed apart in the source"}, "[21]": {"target": "SHC1-PTB (Homo sapiens) (UniProt P29353)", "conditions": "cited from earlier work", "remark": "listed apart in the source"}, "[22]": {"target": "CRKL (Homo sapiens) (UniProt P46109)", "sequence (P46109 9-107)": "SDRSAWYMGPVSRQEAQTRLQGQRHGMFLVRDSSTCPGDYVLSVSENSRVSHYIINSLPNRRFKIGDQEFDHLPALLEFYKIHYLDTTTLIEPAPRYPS", "conditions": "cited from earlier work"}, "[23]": {"target": "PIK3R3-NC (Homo sapiens) (UniProt Q92569)", "conditions": "cited from earlier work", "remark": "listed apart in the source"}, "[24]": {"target": "SYK-N (Homo sapiens) (UniProt P43405)", "conditions": "cited from earlier work"}, "[25]": {"target": "SHC1 (Homo sapiens) (UniProt P29353)", "sequence (P29353 483-583)": "as the sequence (P29353 483-583) above", "conditions": "cited from earlier work"}, "[26]": {"target": "SHC1-PTB (Homo sapiens) (UniProt P29353)", "conditions": "cited from earlier work", "remark": "listed apart in the source"}, "[27]": {"target": "PIK3R1-NC (Homo sapiens) (UniProt P27986)", "conditions": "cited from earlier work", "remark": "listed apart in the source"}, "[28]": {"target": "BLK (Homo sapiens) (UniProt P51451)", "sequence (P51451 119-225)": "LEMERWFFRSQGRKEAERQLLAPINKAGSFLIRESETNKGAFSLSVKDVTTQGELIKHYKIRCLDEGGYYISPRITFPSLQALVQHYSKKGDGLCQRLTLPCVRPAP", "conditions": "cited from earlier work"}, "[29]": {"target": "PLCG2-NC (Homo sapiens) (UniProt P16885)", "sequence (P16885 527-740)": "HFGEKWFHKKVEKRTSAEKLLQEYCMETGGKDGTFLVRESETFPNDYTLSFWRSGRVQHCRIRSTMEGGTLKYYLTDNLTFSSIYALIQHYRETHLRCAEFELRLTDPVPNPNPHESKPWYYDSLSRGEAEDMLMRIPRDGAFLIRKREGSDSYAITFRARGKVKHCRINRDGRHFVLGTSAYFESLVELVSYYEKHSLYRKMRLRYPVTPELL", "conditions": "cited from earlier work"}, "[30]": {"target": "LYN (Homo sapiens) (UniProt P07948)", "sequence (P07948 124-231)": "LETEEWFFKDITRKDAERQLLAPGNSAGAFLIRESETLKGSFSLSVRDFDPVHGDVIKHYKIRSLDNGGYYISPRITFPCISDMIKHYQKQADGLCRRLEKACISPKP", "conditions": "cited from earlier work"}, "[31]": {"target": "GRB2 (Homo sapiens) (UniProt P62993)", "sequence (P62993 55-157)": "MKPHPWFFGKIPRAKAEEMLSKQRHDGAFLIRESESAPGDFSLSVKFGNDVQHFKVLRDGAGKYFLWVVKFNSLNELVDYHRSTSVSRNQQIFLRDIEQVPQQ", "conditions": "cited from earlier work"}, "[32]": {"target": "PIK3R3-NC (Homo sapiens) (UniProt Q92569)", "conditions": "cited from earlier work", "remark": "listed apart in the source"}, "[33]": {"target": "RASA1-N (Homo sapiens) (UniProt P20936)", "sequence (P20936 176-446)": "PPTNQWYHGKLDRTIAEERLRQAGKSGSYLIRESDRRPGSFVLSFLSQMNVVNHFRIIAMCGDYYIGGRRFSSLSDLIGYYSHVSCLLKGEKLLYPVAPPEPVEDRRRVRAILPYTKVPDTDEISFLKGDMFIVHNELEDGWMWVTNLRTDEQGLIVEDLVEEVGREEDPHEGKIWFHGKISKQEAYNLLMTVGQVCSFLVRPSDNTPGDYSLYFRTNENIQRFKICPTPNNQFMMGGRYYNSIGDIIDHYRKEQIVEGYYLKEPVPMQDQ", "conditions": "cited from earlier work"}, "[34]": {"target": "ABL2 (Homo sapiens) (UniProt P42684)", "conditions": "cited from earlier work", "remark": "listed apart in the source"}, "[35]": {"target": "CRK (Homo sapiens) (UniProt P46108)", "sequence (P46108 8-123)": "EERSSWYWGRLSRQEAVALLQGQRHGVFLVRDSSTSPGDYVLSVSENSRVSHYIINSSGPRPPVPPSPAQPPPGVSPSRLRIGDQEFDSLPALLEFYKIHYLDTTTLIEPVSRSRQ", "conditions": "cited from earlier work"}, "[36]": {"target": "YES1 (Homo sapiens) (UniProt P07947)", "sequence (P07947 153-260)": "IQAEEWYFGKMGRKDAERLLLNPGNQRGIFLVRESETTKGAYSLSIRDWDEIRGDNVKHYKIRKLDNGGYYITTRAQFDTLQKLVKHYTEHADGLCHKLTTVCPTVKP", "conditions": "cited from earlier work"}, "[37]": {"target": "RASA1-NC (Homo sapiens) (UniProt P20936)", "sequence (P20936 176-446)": "as the sequence (P20936 176-446) above", "conditions": "cited from earlier work"}, "[38]": {"target": "ITK (Homo sapiens) (UniProt Q08881)", "conditions": "cited from earlier work", "remark": "listed apart in the source"}, "[39]": {"target": "GRB7 (Homo sapiens) (UniProt Q14451)", "sequence (Q14451 426-532)": "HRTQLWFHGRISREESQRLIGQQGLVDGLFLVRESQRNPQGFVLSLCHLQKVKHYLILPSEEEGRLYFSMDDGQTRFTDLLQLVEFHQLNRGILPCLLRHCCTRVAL", "conditions": "cited from earlier work"}, "[40]": {"target": "SRC (Homo sapiens) (UniProt P12931)", "conditions": "cited from earlier work"}, "[41]": {"target": "FGR (Homo sapiens) (UniProt P09769)", "conditions": "cited from earlier work"}, "[42]": {"target": "TEC (Homo sapiens) (UniProt P42680)", "sequence (P42680 242-350)": "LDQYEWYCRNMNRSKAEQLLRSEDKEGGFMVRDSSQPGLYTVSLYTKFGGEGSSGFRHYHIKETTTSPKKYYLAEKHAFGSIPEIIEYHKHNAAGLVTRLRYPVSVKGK", "conditions": "cited from earlier work"}, "[43]": {"target": "PIK3R1-N (Homo sapiens) (UniProt P27986)", "conditions": "cited from earlier work", "remark": "listed apart in the source"}, "[44]": {"target": "SHC3 (Homo sapiens) (UniProt Q92529)", "sequence (Q92529 494-594)": "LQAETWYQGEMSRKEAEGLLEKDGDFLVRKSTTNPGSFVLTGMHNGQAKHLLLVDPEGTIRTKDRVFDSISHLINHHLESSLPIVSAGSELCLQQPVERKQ", "conditions": "cited from earlier work"}, "[45]": {"target": "SYK-NC (Homo sapiens) (UniProt P43405)", "conditions": "cited from earlier work"}, "[46]": {"target": "ErbB3-pY1197 phosphopeptide, rhodamine-labelled (human)", "test": "fluorescence polarisation; saturation binding in solution; rhodamine-labeled peptide fixed at 10 nM, protein titrated 0.002-10 µM (twelve two-fold dilutions); 20 minutes at room temperature in the dark; assay buffer 20 mM HEPES, 100 mM KCl, 0.1% Tween-20, 5 mM DTT, pH 7.8; apparent KD; assay detection threshold of 20 µM"}, "[47]": {"target": "ErbB3-pY1260 phosphopeptide, rhodamine-labelled (human)", "test": "fluorescence polarisation; saturation binding in solution; rhodamine-labeled peptide fixed at 10 nM, protein titrated 0.002-10 µM (twelve two-fold dilutions); 20 minutes at room temperature in the dark; assay buffer 20 mM HEPES, 100 mM KCl, 0.1% Tween-20, 5 mM DTT, pH 7.8; apparent KD; assay detection threshold of 20 µM"}}, "note": "Where two headings read alike, the source gives them in different places."}
{"substance": "…pYMPMNQGN", "values": [{"measurement": "apparent Kd (screen)", "setting": "[1]", "value": 1.32, "unit": "µM"}, {"measurement": "apparent Kd (screen)", "setting": "[2]", "value": 0.999, "unit": "µM"}, {"measurement": "apparent Kd (screen)", "setting": "[3]", "value": 2, "unit": "µM"}, {"measurement": "apparent Kd (screen)", "setting": "[4]", "value": 0.999, "unit": "µM"}, {"measurement": "apparent Kd (screen)", "setting": "[5]", "value": 0.566, "unit": "µM"}, {"measurement": "apparent Kd (screen)", "setting": "[6]", "value": 0.105, "unit": "µM"}, {"measurement": "apparent Kd (screen)", "setting": "[7]", "value": 0.167, "unit": "µM"}, {"measurement": "apparent Kd (screen)", "setting": "[8]", "value": 0.999, "unit": "µM"}, {"measurement": "apparent Kd (screen)", "setting": "[9]", "value": 0.92, "unit": "µM"}, {"measurement": "apparent Kd (screen)", "setting": "[10]", "value": 1.37, "unit": "µM"}, {"measurement": "apparent Kd (screen)", "setting": "[11]", "value": 0.331, "unit": "µM"}, {"measurement": "apparent Kd (screen)", "setting": "[12]", "value": 0.05, "unit": "µM"}, {"measurement": "apparent Kd (screen)", "setting": "[13]", "value": 0.492, "unit": "µM"}, {"measurement": "apparent Kd (screen)", "setting": "[14]", "value": 0.109, "unit": "µM"}, {"measurement": "apparent Kd (screen)", "setting": "[15]", "value": 1.67, "unit": "µM"}, {"measurement": "apparent Kd (screen)", "setting": "[16]", "value": 1.18, "unit": "µM"}, {"measurement": "apparent Kd (screen)", "setting": "[17]", "value": 1.23, "unit": "µM"}, {"measurement": "apparent Kd (screen)", "setting": "[18]", "value": 0.088, "unit": "µM"}, {"measurement": "apparent Kd (screen)", "setting": "[19]", "value": 0.893, "unit": "µM"}]}
{"substance": "…pYLRVAPQSd", "values": [{"measurement": "apparent Kd (screen)", "setting": "[20]", "value": 0.5, "unit": "µM"}, {"measurement": "apparent Kd (screen)", "setting": "[21]", "value": 0.317, "unit": "µM"}, {"measurement": "apparent Kd (screen)", "setting": "[22]", "value": 1.34, "unit": "µM"}, {"measurement": "apparent Kd (screen)", "setting": "[23]", "value": 1.11, "unit": "µM"}, {"measurement": "apparent Kd (screen)", "setting": "[24]", "value": 0.294, "unit": "µM"}, {"measurement": "apparent Kd (screen)", "setting": "[25]", "value": 0.777, "unit": "µM"}, {"measurement": "apparent Kd (screen)", "setting": "[26]", "value": 0.337, "unit": "µM"}, {"measurement": "apparent Kd (screen)", "setting": "[27]", "value": 0.5, "unit": "µM"}, {"measurement": "apparent Kd (screen)", "setting": "[28]", "value": 0.5, "unit": "µM"}, {"measurement": "apparent Kd (screen)", "setting": "[29]", "value": 0.5, "unit": "µM"}, {"measurement": "apparent Kd (screen)", "setting": "[30]", "value": 0.171, "unit": "µM"}, {"measurement": "apparent Kd (screen)", "setting": "[31]", "value": 0.415, "unit": "µM"}, {"measurement": "apparent Kd (screen)", "setting": "[32]", "value": 0.805, "unit": "µM"}, {"measurement": "apparent Kd (screen)", "setting": "[33]", "value": 0.708, "unit": "µM"}, {"measurement": "apparent Kd (screen)", "setting": "[34]", "value": 0.214, "unit": "µM"}, {"measurement": "apparent Kd (screen)", "setting": "[35]", "value": 1.07, "unit": "µM"}, {"measurement": "apparent Kd (screen)", "setting": "[36]", "value": 0.127, "unit": "µM"}, {"measurement": "apparent Kd (screen)", "setting": "[37]", "value": 0.5, "unit": "µM"}, {"measurement": "apparent Kd (screen)", "setting": "[38]", "value": 0.5, "unit": "µM"}, {"measurement": "apparent Kd (screen)", "setting": "[39]", "value": 0.5, "unit": "µM"}, {"measurement": "apparent Kd (screen)", "setting": "[40]", "value": 0.381, "unit": "µM"}, {"measurement": "apparent Kd (screen)", "setting": "[41]", "value": 0.618, "unit": "µM"}, {"measurement": "apparent Kd (screen)", "setting": "[42]", "value": 0.48, "unit": "µM"}, {"measurement": "apparent Kd (screen)", "setting": "[43]", "value": 0.5, "unit": "µM"}, {"measurement": "apparent Kd (screen)", "setting": "[44]", "value": 1.03, "unit": "µM"}, {"measurement": "apparent Kd (screen)", "setting": "[45]", "value": 0.38, "unit": "µM"}]}
{"substance": "GRB7 SH2 domain (from UniProt Q14451 431-527) (domain or fragment)", "values": [{"measurement": "Kd", "setting": "[46]", "value": "< 0.1", "unit": "µM"}, {"measurement": "Kd", "setting": "[47]", "value": "< 0.1", "unit": "µM"}]}
